Data as given in patent US20200109207A1 (CELLDEX THERAPEUTICS, published 2020).

T1: human CD27 on the cell surface (Ramos cells, human CD3+ T cells, CD27 reporter cell line) (human, UniProt P26842 20-260)
T1 construct: also called CD27 on cells
T1 sequence: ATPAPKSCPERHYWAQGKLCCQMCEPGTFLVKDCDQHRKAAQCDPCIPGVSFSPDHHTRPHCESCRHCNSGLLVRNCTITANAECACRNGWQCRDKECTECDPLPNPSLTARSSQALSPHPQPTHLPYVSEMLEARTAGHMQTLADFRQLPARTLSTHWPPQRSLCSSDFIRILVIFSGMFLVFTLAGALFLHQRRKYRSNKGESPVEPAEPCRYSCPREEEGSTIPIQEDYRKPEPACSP

T2: recombinant human CD27-FLAG-HIS (human, UniProt P26842 20-191)
T2 sequence: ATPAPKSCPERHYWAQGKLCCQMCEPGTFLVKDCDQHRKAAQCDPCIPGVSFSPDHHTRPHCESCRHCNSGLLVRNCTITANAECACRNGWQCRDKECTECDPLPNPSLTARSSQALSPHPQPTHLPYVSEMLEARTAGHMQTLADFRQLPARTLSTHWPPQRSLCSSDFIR

T3: full length wild type extracellular domain (ECD) of human CD27 (human, UniProt P26842 21-188)
T3 construct: also called wild type huCD27; ECD of huCD27
T3 sequence: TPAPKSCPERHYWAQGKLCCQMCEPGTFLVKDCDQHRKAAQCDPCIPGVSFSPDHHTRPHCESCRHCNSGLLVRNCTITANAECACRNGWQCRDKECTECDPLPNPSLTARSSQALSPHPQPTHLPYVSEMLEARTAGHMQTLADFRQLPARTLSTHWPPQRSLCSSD

T4: human CD27 ECD with mutated amino acids 85, 87, 88 and 89 (A85S, R87A, N88A and G89A) (human, UniProt P26842 21-188)
T4 construct: also called mutated huCD27; mutated CD27 ECD
T4 chain: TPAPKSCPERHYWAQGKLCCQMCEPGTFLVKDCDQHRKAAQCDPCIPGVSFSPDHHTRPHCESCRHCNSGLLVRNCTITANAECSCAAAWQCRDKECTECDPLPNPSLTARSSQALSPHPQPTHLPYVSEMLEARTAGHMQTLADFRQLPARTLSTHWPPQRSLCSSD


Legend:
[1] = target: T1, human CD27 on the cell surface (Ramos …); test: flow cytometry, Ramos cells expressing human CD27, antibody 3 µg/ml
Protocol: Antibodies were tested for binding to a human cell line expressing human CD27 on their surface. Protein A purified human monoclonal antibodies (3 μg/ml) were incubated with Ramos cells expressing human CD27 at room temperature on a plate shaker. After 20 minutes, the cells were washed with PBS containing 0.1% BSA and 0.05% NaN₃ (PBA) and the bound antibodies were detected by incubating the cells with a PE labeled goat anti-human IgG Fc-specific probe. The excess probe was washed from the cells with PBA and the cell associated fluorescence was determined by analysis using a FACSCanto II™ instrument (BD Biosciences, NJ, USA) according to the manufacturer's directions.

[2] = target: T2, recombinant human CD27-FLAG-HIS; test: ELISA, plate coated with recombinant human CD27-FLAG-HIS
Protocol: Microtiter plates were coated with recombinant human CD27-FLAG-HIS in PBS, and then blocked with 5% bovine serum albumin in PBS. Protein A purified human monoclonal antibodies were added at various concentrations and incubated at 37° C. The plates were washed with PBS/Tween and then incubated with a goat-anti-human IgG Fc-specific polyclonal reagent conjugated to horseradish peroxidase at 37° C. After washing, the plates were developed with HRP substrate, and analyzed at OD 450-650 nm using a microtiter plate reader.

[3] = target: T3, full length wild type extracellular …; test: ELISA, plate coated with wild type CD27 ECD; supernatant of cells expressing mAb 2B3; anti-human IgG Fc-HRP
Protocol: (§1) The full length wild type extracellular domain (ECD) of human CD27 or human CD27 with mutated amino acids 85, 87, 88, and 89 (A85S, R87A, N88A and G89A; see FIG. 34) were coated to a plate, then blocked. Supernatant from transiently transfected cells expressing mAb 2B3 was added and binding was detected with an HRP conjugated goat anti-human IgG Fc polyclonal antibody.

[4] = target: T4, human CD27 ECD with mutated amino acids …; test: ELISA, plate coated with mutated CD27 ECD; supernatant of transiently transfected cells expressing mAb 2B3; anti-human IgG Fc-HRP
Protocol: as §1

[5] = target: T2, recombinant human CD27-FLAG-HIS; test: bifunctional ELISA generally as in Example 16 (CD27-FLAG-HIS coated, PD-L1-msFc detected)
Protocol: Binding of bispecific constructs to CD27 and PD-L1 was assessed using a bifunctional ELISA. Antibody AbX is a known anti-PD-L1 monoclonal antibody. In brief, a microtiter plate was coated with human CD27-FLAG-HIS. Dilutions of the bispecific constructs were allowed to bind before adding human PD-L1-msFc that was detected with an HRP labeled goat anti-mouse IgG (Fc specific) antibody.

Row | Binder | binding result [1] | binding result [2] | binding result [3] | binding result [4] | binding result [5]
1 | anti-CD27 human monoclonal antibody 2B3 (antibody, V domains shown, In the cynomolgus CD27 ELISA hybridoma supernatants were used (human V regions with rat constant regions); also called mAb 2B3) VH: QVQLVQSGAEVKKPGASVKVSCKASGYTFTGYYIHWVRQAPGQGLEWMGWINPNSGGTNSAQKFQDRVTITRVTSINTAYMELSRLRSDDTAVYFCARDRLVLPWFGEIFPDAFDIWGQGTLVTVSS VL: EIVMTQSPATLSVSPGERATLSCRASQSIRSNLAWYQQKPGQAPRLLIYGASTRATGIPARFSGSGSGTEFTLTISSLQSENFAVYYCQQYNNWPLTFGGGTKVEIK | binds | binds | binds | no binding | 
2 | anti-CD27 human monoclonal antibody 3C2 (antibody, V domains shown, hybridoma supernatant (rat constant regions) in the cynomolgus CD27 ELISA) VH: QAQLQESGPGLVKPSETLSLTCTVSTGSISGYYWSWIRQPPGKGLEWIGYNYYSGSTNYNPSLKSRVTISIDTSKNQFSLKLNSVTAADTAVYYCARYPLIRGAFDYWGQGTLVTVSS VL: not shown | binds | binds |  |  | 
3 | CDX-527 (9H9×2B3 bispecific antibody: anti-PD-L1 IgG1 9H9 with anti-CD27 2B3 scFv) (bispecific antibody) heavy: not shown light: DIQMTQSPSTLSASVGDRVTITCRASQSISGWLAWYQQKPGKAPKLLIYKASSLESGVPSRFSGSGSGTEFTLTISSLQPDDFATYYCQQYYGSSRTFGQGTNVEIKRTVAAPSVFIFPPSDEQLKSGTASVVCLLNNFYPREAKVQWKVDNALQSGNSQESVTEQDSKDSTYSLSSTLTLSKADYEKHKVYACEVTHQGLSSPVTKSFNRGEC |  |  |  |  | binds
